Experimental data published in US20190144529A1 (UCB, published 2019).

target: T1, human serum albumin (human, UniProt P02768 25-609); assay: SPR, Fab captured; albumin taken as HSA;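 also: antibody held on a capture surface, albumin injected for 3 min association then dissociation followed, signals corrected using a blank reference flow cell and buffer-only injections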
T1 construct: mature; Bought purified serum albumin; also called HSA; Human albumin
Procedure: Each assay cycle consisted of firstly capturing the antibody sample using a 1 min injection, before an association phase consisting of a 3 min injection of albumin, after which dissociation was monitored. After each cycle, the capture surface was regenerated with two 1 min injections of 40 mM HCl followed by 30 s of 5 mM NaOH. The flow rates used were 10 μl/min for capture, 30 μl/min for both the association and dissociation phases, and 10 μl/min for regeneration. A blank flow-cell was used for reference subtraction and buffer-blank injections were included to subtract instrument noise and drift.

Row | Kd [nM] | koff [s⁻¹] | kon [M⁻¹ s⁻¹] | Binder
1 | 1.73 | 8.4e-05 | 48300 | CA645 gL4gH27 Fab (Fab, V domains shown, Fab: human gamma1 CH1, human kappa (Km3); Kabat numbering) VH: EVQLLESGGGLVQPGGSLRLSCAVSGIDLSNYAINWVRQAPGKGLEWIGIIWGSGTTFYATWAKGRFTISRDNSKNTVYLQMNSLRAEDTAVYYCARTVPGYSTAPYFDLWGQGTLVTVSS VL: DIQMTQSPSSVSASVGDRVTITCQSSPSVWSNFLSWYQQKPGKAPKLLIYEASKLTSGVPSRFSGSGSGTDFTLTISSLQPEDFATYYCGGGYSSISDTTFGGGTKVEIK
2 | 1.88 | 0.000104 | 55400 | CA645 gL12gH5 Fab (Fab, V domains shown, Fab: human gamma1 CH1, human kappa (Km3); Kabat numbering) VH: EVQLLESGGGLVQPGGSLRLSCAVSGIDLSNYAINWVRQAPGKGLEWIGIIWASGTTFYATWAKGRFTISRDNSKNTVYLQMNSLRAEDTAVYYCARTVPGYSTAPYFDLWGQGTLVTVSS VL: DIQMTQSPSSVSASVGDRVTITCQSSPDVWSNFLSWYQQKPGKAPKLLIYEASKLTSGVPSRFSGSGSGTDFTLTISSLQPEDFATYYCGGGYSSISDTTFGGGTKVEIK
3 | 7.97 | 0.00038 | 47700 | CA645 gL4gH29 Fab (Fab, V domains shown, Fab: human gamma1 CH1, human kappa (Km3); Kabat numbering) VH: EVQLLESGGGLVQPGGSLRLSCAVSGIDLSNYAINWVRQAPGKGLEWIGIIWSSGTTFYATWAKGRFTISRDNSKNTVYLQMNSLRAEDTAVYYCARTVPGYSTAPYFDLWGQGTLVTVSS VL: DIQMTQSPSSVSASVGDRVTITCQSSPSVWSNFLSWYQQKPGKAPKLLIYEASKLTSGVPSRFSGSGSGTDFTLTISSLQPEDFATYYCGGGYSSISDTTFGGGTKVEIK
4 | 7.39 | 0.000391 | 52900 | CA645 gL4gH43 Fab (Fab, V domains shown, Fab: human gamma1 CH1, human kappa (Km3); Kabat numbering) VH: EVQLLESGGGLVQPGGSLRLSCAVSGIDLSNYAINWVRQAPGKGLEWIGIIWASGTTFYATWAKGRFTISRDNSKNTVYLQMNSLRAEDTAVYYCARTVPEYSTAPYFDLWGQGTLVTVSS VL: DIQMTQSPSSVSASVGDRVTITCQSSPSVWSNFLSWYQQKPGKAPKLLIYEASKLTSGVPSRFSGSGSGTDFTLTISSLQPEDFATYYCGGGYSSISDTTFGGGTKVEIK
5 | 3.41 | 0.00019 | 55800 | CA645 gL34gH5 Fab (Fab, V domains shown, Fab: human gamma1 CH1, human kappa (Km3); Kabat numbering) VH: EVQLLESGGGLVQPGGSLRLSCAVSGIDLSNYAINWVRQAPGKGLEWIGIIWASGTTFYATWAKGRFTISRDNSKNTVYLQMNSLRAEDTAVYYCARTVPGYSTAPYFDLWGQGTLVTVSS VL: DIQMTQSPSSVSASVGDRVTITCQSSPSVWSNFLSWYQQKPGKAPKLLIYEASKLTSGVPSRFSGSGSGTDFTLTISSLQPEDFATYYCGGGYTSISDTTFGGGTKVEIK
6 | 12.2 | 0.000581 | 47500 | CA645 gL4gH38 Fab (Fab, V domains shown, Fab: human gamma1 CH1, human kappa (Km3); Kabat numbering) VH: EVQLLESGGGLVQPGGSLRLSCAVSGIDLSNYAINWVRQAPGKGLEWIGIIWASGTTYYATWAKGRFTISRDNSKNTVYLQMNSLRAEDTAVYYCARTVPGYSTAPYFDLWGQGTLVTVSS VL: DIQMTQSPSSVSASVGDRVTITCQSSPSVWSNFLSWYQQKPGKAPKLLIYEASKLTSGVPSRFSGSGSGTDFTLTISSLQPEDFATYYCGGGYSSISDTTFGGGTKVEIK
7 | 1.51 | 8.7e-05 | 57700 | CA645 gL14gH5 Fab (Fab, V domains shown, Fab: human gamma1 CH1, human kappa (Km3); Kabat numbering) VH: EVQLLESGGGLVQPGGSLRLSCAVSGIDLSNYAINWVRQAPGKGLEWIGIIWASGTTFYATWAKGRFTISRDNSKNTVYLQMNSLRAEDTAVYYCARTVPGYSTAPYFDLWGQGTLVTVSS VL: DIQMTQSPSSVSASVGDRVTITCQSSPLVWSNFLSWYQQKPGKAPKLLIYEASKLTSGVPSRFSGSGSGTDFTLTISSLQPEDFATYYCGGGYSSISDTTFGGGTKVEIK
8 | 14 | 0.00075 | 53500 | CA645 gL4gH39 Fab (Fab, V domains shown, Fab: human gamma1 CH1, human kappa (Km3); Kabat numbering) VH: EVQLLESGGGLVQPGGSLRLSCAVSGIDLSNYAINWVRQAPGKGLEWIGIIWASGTTFYATWAKGRFTISRDNSKNTVYLQMNSLRAEDTAVYYCARTVPIYSTAPYFDLWGQGTLVTVSS VL: DIQMTQSPSSVSASVGDRVTITCQSSPSVWSNFLSWYQQKPGKAPKLLIYEASKLTSGVPSRFSGSGSGTDFTLTISSLQPEDFATYYCGGGYSSISDTTFGGGTKVEIK
9 | 5.57 | 0.00029 | 52100 | CA645 gL35gH5 Fab (Fab, V domains shown, Fab: human gamma1 CH1, human kappa (Km3); Kabat numbering) VH: EVQLLESGGGLVQPGGSLRLSCAVSGIDLSNYAINWVRQAPGKGLEWIGIIWASGTTFYATWAKGRFTISRDNSKNTVYLQMNSLRAEDTAVYYCARTVPGYSTAPYFDLWGQGTLVTVSS VL: DIQMTQSPSSVSASVGDRVTITCQSSPSVWSNFLSWYQQKPGKAPKLLIYEASKLTSGVPSRFSGSGSGTDFTLTISSLQPEDFATYYCGGGYVSISDTTFGGGTKVEIK
10 | 10.6 | 0.000515 | 48500 | CA645 gL4gH28 Fab (Fab, V domains shown, Fab: human gamma1 CH1, human kappa (Km3); Kabat numbering) VH: EVQLLESGGGLVQPGGSLRLSCAVSGIDLSNYAINWVRQAPGKGLEWIGIIWVSGTTFYATWAKGRFTISRDNSKNTVYLQMNSLRAEDTAVYYCARTVPGYSTAPYFDLWGQGTLVTVSS VL: DIQMTQSPSSVSASVGDRVTITCQSSPSVWSNFLSWYQQKPGKAPKLLIYEASKLTSGVPSRFSGSGSGTDFTLTISSLQPEDFATYYCGGGYSSISDTTFGGGTKVEIK
11 | 6.54 | 0.000351 | 53700 | CA645 gL4gH41 Fab (Fab, V domains shown, Fab: human gamma1 CH1, human kappa (Km3); Kabat numbering) VH: EVQLLESGGGLVQPGGSLRLSCAVSGIDLSNYAINWVRQAPGKGLEWIGIIWASGTTFYATWAKGRFTISRDNSKNTVYLQMNSLRAEDTAVYYCARTVPDYSTAPYFDLWGQGTLVTVSS VL: DIQMTQSPSSVSASVGDRVTITCQSSPSVWSNFLSWYQQKPGKAPKLLIYEASKLTSGVPSRFSGSGSGTDFTLTISSLQPEDFATYYCGGGYSSISDTTFGGGTKVEIK
12 | 4.22 | 0.000226 | 53500 | CA645 gL4gH44 Fab (Fab, V domains shown, Fab: human gamma1 CH1, human kappa (Km3); Kabat numbering) VH: EVQLLESGGGLVQPGGSLRLSCAVSGIDLSNYAINWVRQAPGKGLEWIGIIWASGTTFYATWAKGRFTISRDNSKNTVYLQMNSLRAEDTAVYYCARTVPLYSTAPYFDLWGQGTLVTVSS VL: DIQMTQSPSSVSASVGDRVTITCQSSPSVWSNFLSWYQQKPGKAPKLLIYEASKLTSGVPSRFSGSGSGTDFTLTISSLQPEDFATYYCGGGYSSISDTTFGGGTKVEIK
13 | 4.17 | 0.000222 | 53100 | CA645 gL4gH42 Fab (Fab, V domains shown, Fab: human gamma1 CH1, human kappa (Km3); Kabat numbering) VH: EVQLLESGGGLVQPGGSLRLSCAVSGIDLSNYAINWVRQAPGKGLEWIGIIWASGTTFYATWAKGRFTISRDNSKNTVYLQMNSLRAEDTAVYYCARTVPQYSTAPYFDLWGQGTLVTVSS VL: DIQMTQSPSSVSASVGDRVTITCQSSPSVWSNFLSWYQQKPGKAPKLLIYEASKLTSGVPSRFSGSGSGTDFTLTISSLQPEDFATYYCGGGYSSISDTTFGGGTKVEIK
14 | 1.03 | 0.000172 | 138000 | CA645 gL10gH5 Fab (Fab, V domains shown, Fab: human gamma1 CH1, human kappa (Km3); Kabat numbering) VH: EVQLLESGGGLVQPGGSLRLSCAVSGIDLSNYAINWVRQAPGKGLEWIGIIWASGTTFYATWAKGRFTISRDNSKNTVYLQMNSLRAEDTAVYYCARTVPGYSTAPYFDLWGQGTLVTVSS VL: DIQMTQSPSSVSASVGDRVTITCQSSPAVWSNFLSWYQQKPGKAPKLLIYEASKLTSGVPSRFSGSGSGTDFTLTISSLQPEDFATYYCGGGYSSISDTTFGGGTKVEIK
15 | 23.2 | 0.00102 | 43800 | CA645 gL4gH30 Fab (Fab, V domains shown, Fab: human gamma1 CH1, human kappa (Km3); Kabat numbering) VH: EVQLLESGGGLVQPGGSLRLSCAVSGIDLSNYAINWVRQAPGKGLEWIGIIWTSGTTFYATWAKGRFTISRDNSKNTVYLQMNSLRAEDTAVYYCARTVPGYSTAPYFDLWGQGTLVTVSS VL: DIQMTQSPSSVSASVGDRVTITCQSSPSVWSNFLSWYQQKPGKAPKLLIYEASKLTSGVPSRFSGSGSGTDFTLTISSLQPEDFATYYCGGGYSSISDTTFGGGTKVEIK
16 | 6.4 | 0.000356 | 55600 | CA645 gL4gH40 Fab (Fab, V domains shown, Fab: human gamma1 CH1, human kappa (Km3); Kabat numbering) VH: EVQLLESGGGLVQPGGSLRLSCAVSGIDLSNYAINWVRQAPGKGLEWIGIIWASGTTFYATWAKGRFTISRDNSKNTVYLQMNSLRAEDTAVYYCARTVPTYSTAPYFDLWGQGTLVTVSS VL: DIQMTQSPSSVSASVGDRVTITCQSSPSVWSNFLSWYQQKPGKAPKLLIYEASKLTSGVPSRFSGSGSGTDFTLTISSLQPEDFATYYCGGGYSSISDTTFGGGTKVEIK
17 | 9.44 | 0.000586 | 62100 | CA645 gL27gH5 Fab (Fab, V domains shown, Fab: human gamma1 CH1, human kappa (Km3); Kabat numbering) VH: EVQLLESGGGLVQPGGSLRLSCAVSGIDLSNYAINWVRQAPGKGLEWIGIIWASGTTFYATWAKGRFTISRDNSKNTVYLQMNSLRAEDTAVYYCARTVPGYSTAPYFDLWGQGTLVTVSS VL: DIQMTQSPSSVSASVGDRVTITCQSSPSVWSNYLSWYQQKPGKAPKLLIYEASKLTSGVPSRFSGSGSGTDFTLTISSLQPEDFATYYCGGGYSSISDTTFGGGTKVEIK
18 | 1.88 | 0.000108 | 57600 | CA645 gL13gH5 Fab (Fab, V domains shown, Fab: human gamma1 CH1, human kappa (Km3); Kabat numbering) VH: EVQLLESGGGLVQPGGSLRLSCAVSGIDLSNYAINWVRQAPGKGLEWIGIIWASGTTFYATWAKGRFTISRDNSKNTVYLQMNSLRAEDTAVYYCARTVPGYSTAPYFDLWGQGTLVTVSS VL: DIQMTQSPSSVSASVGDRVTITCQSSPIVWSNFLSWYQQKPGKAPKLLIYEASKLTSGVPSRFSGSGSGTDFTLTISSLQPEDFATYYCGGGYSSISDTTFGGGTKVEIK
19 | 8.25 | 0.000444 | 53800 | CA645 gL4gH45 Fab (Fab, V domains shown, Fab: human gamma1 CH1, human kappa (Km3); Kabat numbering) VH: EVQLLESGGGLVQPGGSLRLSCAVSGIDLSNYAINWVRQAPGKGLEWIGIIWASGTTFYATWAKGRFTISRDNSKNTVYLQMNSLRAEDTAVYYCARTVPVYSTAPYFDLWGQGTLVTVSS VL: DIQMTQSPSSVSASVGDRVTITCQSSPSVWSNFLSWYQQKPGKAPKLLIYEASKLTSGVPSRFSGSGSGTDFTLTISSLQPEDFATYYCGGGYSSISDTTFGGGTKVEIK
